# Data reported in US20190119357A1, “MESSENGER RIBONUCLEIC ACIDS FOR THE PRODUCTION OF INTRACELLULAR BINDING POLYPEPTIDES AND METHODS OF USE THEREOF” (ModernaTX, Inc., priority 2015, published 2019).
# Entries after “also recorded” stand apart in the source; their conditions may differ.
# B1: SQT-PUMA-BH3: mRNA (SEQ ID NO: 49, FLAG) encoding SQT scaffold with PUMA BH3 domain in N-terminus, fully modified with 1-methyl-pseudouridine (nucleic acid)
# chain: ATGATCCCAAGAGAAGAACAGTGGGCACGCGAAATTGGAGCTCAACTCAGACGGATGGCCGACGACCTGAACGCCCAGTACGAGCGGCGGGGACTCTCAGAAGCGAAGCCTGCCACCCCCGAAATCCAGGAAATCGTCGACAAGGTCAAGCCGCAGCTTGAGGAAAAGACCAACGAGACTTACGGAAAACTGGAGGCCGTGCAGTATAAGACCCAAGTGTTGGCCTCCACCAACTACTACATTAAGGTCCGCGCCGGCGATAACAAGTACATGCACCTGAAGGTGTTCAATGGTCCTCCGGGACAGAACGCGGACAGGGTGCTGACTGGCTACCAAGTGGACAAGAACAAGGACGACGAGCTGACGGGCTTCGACTACAAGGATGATGATGACAAA
# modifications: FLAG tag, 1-methyl-pseudouridine; Synthetic SQT-PUMA-BH3 mRNA sequence with FLAG epitope tag
# Experiments:
# [1] = tested on: human hepatocellular carcinoma (Hep G2) cells; assay: Cell death and morphology after mRNA transfection; format: cell-based
# Source text: A representative graph of the apoptotic ability of the SQT-BH3 constructs is shown in FIG. 2, showing the cell killing capacity of the SQT-BH3 constructs in Hep G2 cells.
# [2] = tested on: Hep3B SC tumors; assay: Combination with sorafenib in SCID mice bearing Hep3B SC tumors; format: in vivo; conditions: mmRNA with miR122 binding site, 1.5 mg/kg IV weekly alone, three weeks, end of study
# Procedure: SCID mice bearing Hep3B SC tumors (tumor size range 140-227 mm^3; average=183 mm^3) were dosed over a three week period with a combination of 0.5% methyl cellulose daily and SQT IV at 1.5 mg/kg alone weekly (Days 1, 8 and 15; Group 1), Sorafenib (in 0.5% methyl cellulose) at 10 mg/kg orally daily alone (Group 2), mmRNA encoding SQT-PUMA-BH3 (comprising a miR122 binding site) weekly at 1.5 mg/kg IV alone (Group 3) or a combination of mmRNA encoding SQT-PUMA-BH3 (with miR122 binding site) at 1.5 mg/kg IV weekly with sorafenib at 10 mg/kg orally daily (Group 4; 10 animals per group).
# [3] = tested on: HepG2 cells; assay: Cell death by YOYO3 with MC3 LNPs; format: cell-based
# [4] = target: T1, BCL-2 (Homo sapiens, UniProt P10415); assay: Co-immunoprecipitation after mRNA transfection; format: binding; conditions: within two hours after mRNA transfection
# T1 construct: endogenous in cells; host or cells: cells transfected with SQT-BH3 mRNA (HeLa by context)
# T1 sequence (P10415 whole entry): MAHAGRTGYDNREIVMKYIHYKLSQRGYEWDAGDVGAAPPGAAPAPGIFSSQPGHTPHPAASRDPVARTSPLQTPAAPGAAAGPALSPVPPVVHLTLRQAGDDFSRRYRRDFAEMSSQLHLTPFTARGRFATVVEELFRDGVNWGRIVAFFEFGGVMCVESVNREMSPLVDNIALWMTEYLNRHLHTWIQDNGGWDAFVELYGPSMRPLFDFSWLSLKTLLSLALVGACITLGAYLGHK
# [5] = tested on: primary hepatocytes; assay: Apoptosis induction by MC3 LNP-formulated mRNAs in primary hepatocytes cultured in vitro; format: cell-based
# [6] = tested on: systemic TF1a xenografts; assay: Systemic TF1a xenografts in SCID mice (AML model); format: in vivo
# Procedure: (§1) LNPs comprising the cationic lipid MC3 were tested using the optimal percentage of PEG-lipid and optimal PEG length (1.5% DSPE, C18, as described in Example 8), for in vivo targeted delivery of SQT-PUMA-BH3 in two different in vivo models of acute myeloid leukemia (AML). One model used systemic TF1a xenografts in SCID mice. The other model used systemic HEL xenografts in SCID mice. Each of these models uses a human erythroleukemia cell line. The HEL erythroleukia cell line is described in, for example, Martin, P. and Papayannopoulou, T. (1982) Science 216:1233-1235. The TF1 erythroleukmia cell line (from which TF1a is derived) is described in, for example, Kitamura, T. et al. (1989) J. Cell. Physiol. 140:323-334. Unless otherwise noted, mRNAs were fully modified with N1-methlypseudouridine to avoid stimulating an innate immune response to said mRNAs when administered in vivo.
# In a first set of experiments, TF1a cells stably expressing luciferase (TF1α-luc cells) were implanted systemically in SCID mice. Tumor growth was measured by whole body bioluminescent imaging (BLI) in anaesthetized animals following SC injection of 150 mg/kg D-Luciferin, in an imaging chamber (Spectrum CT). Animals showing an increasing tumor burden at day 12 post-cell implantation were recruited for treatment. Animals were randomized into four study groups, as follows: PBS IV (Group 1), cytarabine at 2 mg/kg three times per week (Group 2), LNPs containing mRNA encoding Green Fluorescent Protein (GFP) at 3 mg/kg one time per week (Group 3) and LNPs containing mRNA encoding SQT-PUMA-BH3 (comprising a miR122 binding site) at 3 mg/kg one time per week. Mice were dosed intravenously for four weeks.
# [7] = target: T2, BCL-XL (Homo sapiens, UniProt Q07817); assay: Co-immunoprecipitation after mRNA transfection; format: binding; conditions: within two hours after mRNA transfection
# T2 construct: endogenous in cells; host or cells: cells transfected with SQT-BH3 mRNA (HeLa by context)
# T2 sequence (Q07817 whole entry): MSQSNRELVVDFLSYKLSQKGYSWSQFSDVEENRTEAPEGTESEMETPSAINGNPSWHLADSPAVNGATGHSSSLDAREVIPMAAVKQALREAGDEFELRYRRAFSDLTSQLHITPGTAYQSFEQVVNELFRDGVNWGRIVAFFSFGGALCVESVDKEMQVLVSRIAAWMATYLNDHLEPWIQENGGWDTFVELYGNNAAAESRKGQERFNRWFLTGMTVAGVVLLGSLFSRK
# [8] = tested on: systemic HEL xenografts; assay: Systemic HEL xenografts in SCID mice (AML model); format: in vivo
# Procedure: as §1
# In a second set of experiments, HEL cells stably expressing luciferase (HEL-luc cells) were implanted systemically in SCID mice. Tumor growth was measured by whole body bioluminescent imaging (BLI) in anaesthetized animals following SC injection of 150 mg/kg D-Luciferin, in an imaging chamber (Spectrum CT). […] Mice were dosed intravenously at days 28 and 36 and tumor burden was assessed by BLI on days 33, 36, 40 and 43.
# [9] = target: T3, MCL-1 (Homo sapiens, UniProt Q07820); assay: Co-immunoprecipitation in lysates of transfected HeLa cells; format: binding; conditions: lysates of HeLa cells transfected with mRNAs
# T3 construct: performed in lysates of HeLa cells transfected with mRNAs encoding SQT-BH3 constructs; endogenous in cells; host or cells: HeLa
# T3 sequence (Q07820 whole entry): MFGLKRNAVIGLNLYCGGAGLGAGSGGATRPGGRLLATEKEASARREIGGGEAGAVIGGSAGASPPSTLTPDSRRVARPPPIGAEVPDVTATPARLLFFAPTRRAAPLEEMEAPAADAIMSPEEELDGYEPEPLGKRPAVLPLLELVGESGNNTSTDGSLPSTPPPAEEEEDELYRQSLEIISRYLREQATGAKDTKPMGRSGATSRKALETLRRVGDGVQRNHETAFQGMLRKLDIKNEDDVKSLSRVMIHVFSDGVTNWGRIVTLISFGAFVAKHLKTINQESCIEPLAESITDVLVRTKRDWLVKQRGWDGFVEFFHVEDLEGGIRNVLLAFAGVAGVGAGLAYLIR
# [10] = tested on: Hep3B cells; assay: Cell death by YOYO-3 with MC3-formulated LNPs; format: cell-based; conditions: relatively high concentration
# Procedure: The efficacy of mRNAs encoding SQT-BH3 constructs in inducing cell death was tested both in hepatocellular carcinoma cell lines as well as in primary hepatocytes using lipid nanoparticle (LNP)-formulated constructs. Hep3B cells were treated with varying doses (0.78 ng to 50 ng) of MC3-formulated LNPs in the presence of YOYO-3 (Life Technologies), a DNA dye that is taken up preferentially by dead cells that is used to measure the extent of cell death. MC3 lipid nanoparticles included MC3 50%, DSPC 10%, Cholesterol 38.5%, PEG-DMG 1.5%, N:P ˜5.5.
# [11] = Survival of mice treated with MC3 LNP formulations of mRNA with or without miR-122 binding site; format: in vivo
# Source text: Negative controls included mRNA encoding SQT alone or SQT with a miR-122 binding site. Constitutively active caspase 6 was used as a positive control. An LNP containing a non-translatable factor IX cap 0 mRNA was used to control for mRNA and lipid effects that might be independent of the proteins encoded by the modified mRNAs. […] This dose was 10 times greater than a dose of mRNA encoding SQT-PUMA-BH3 that killed 40% of mice.
# [12] = TF1a-SCID mice, 3 mg/kg one time per week
molecule,measurement,setting,value
B1,cell death,[1],caused rapid cell death almost immediately following transfection; also recorded: underwent cell death almost immediately following transfection
same,cell morphology,[1],rounded-up cell morphology that is characteristic of apoptotic cells
same,tumor growth inhibition (TGI),[2],28%
same,cell death (YOYO3 staining),[3],lead to cell death; also recorded: kills HepG2 cells
same,interaction with BCL-2 by co-immunoprecipitation,[4],to a lesser extent
same,PARP-1 cleavage,[5]; LNPs,also induced PARP-1 cleavage in primary hepatocytes
same,apoptosis (YOYO-3 dye uptake and fluorescence) as a function of time,[5]; MC3-LNP-formulated,induce apoptosis
same,body weight,[6]; [12],did not cause significant body weight changes
same,tolerability / treatment-related mortality,[6]; [12],"well tolerated, resulting in no treatment-related mortality"
same,systemic tumor growth (BLI),"[6]; TF1a-SCID, mRNA LNPs 3 mg/kg one time per week, cytarabine 2 mg/kg three times per week, IV, four weeks",led to greater tumor growth inhibition than treatment with cytarabine
same,interaction with BCL-XL by co-immunoprecipitation,[7],able interact
same,"tumor growth inhibition (TGI), BLI","[8]; 1.5 mg/kg IV at days 28 and 36, by days 40 and 43",exhibited greater tumor growth inhibition (TGI) as compared to the mice treated with the PBS or GFP controls
same,"tumor growth inhibition (TGI), BLI","[8]; 3 mg/kg IV at days 28 and 36, at day 33",already exhibited significantly greater tumor growth inhibition than the mice treated with the PBS or GFP controls
same,co-immunoprecipitation of MCL-1,[9],able to co-immunoprecipitate
same,apoptosis and cell death (YOYO-3),[10],both induced apoptosis and cell death; also recorded: kills Hep3B cells at higher concentrations
same,"efficacy and timing of cell killing, comparison",[10],showed a modest increase in both the efficacy and timing of cell killing compared to SQT-Bim-BH3
same,mice killed,"[11]; mRNA without miR-122 binding site, dose 10 times lower than 1 mg/kg",40%
same,toxicity / tolerable dose / survival,"[11]; mice, MC3 LNP formulations, 0.1-3 mg/kg",very toxic over a range of doses
same,"death of the treated animals, time","[11]; mice, MC3 LNP, mRNA without miR-122 binding sites, range of doses",≤ 5 h
same,survival rate,"[11]; mice, lowest dose of 0.1 mg/kg, mRNA without miR-122 binding sites",approximately 60%
